Measured values: the supplement of paper PMC9732359
± gives the uncertainty stated by the source.

Test: protein stability index of a GFP-peptide fusion (yeast GPS) (PSI 1-4); higher = more stable; sorted into four equal gates, so the index is relative within each strain
Settings: pdr5∆
Procedure, shortened: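 Plasmids in a pooled yeast library fused tiled 17-residue yeast protein peptides downstream of GFP and also expressed Cherry. Mid-log cultures grown without leucine were sorted into four equal gates by GFP/Cherry fluorescence ratio. Each gate's plasmids were PCR-amplified and Illumina-sequenced, and reads were matched to strains by barcodes. The protein stability index is derived by multiplying each gate's read frequency by its gate number and summing the results.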
Sequence TGIFMAMHYSSNIELAF [COB] has a protein stability index of 1.51 ± 0.063.
TGKFVLQGQMEKIMILL [CSN12] gave a protein stability index of 2.2 ± 0.12.
TGKITKMFQDIRLSKIL [CDC53] showed a protein stability index of 3.03 ± 0.093.

Same assay, conditions: san1∆
SPQKFETNLQTFLPPLL [ECM29] gave a protein stability index of 3.2 ± 0.04.
SPSERIEPLEINIQSFK [BRR2] showed a protein stability index of 2.55 ± 0.047.
In the case of SPTENGVFDPASYAKYL [RPL22A], the protein stability index is reported as 3.08 ± 0.045.
SPTPIQRITIPNVCNMK [PRP28] showed a protein stability index of 2.04 ± 0.068.
For SQAFDIVAALPISEKGL [RPP1], the protein stability index was 2.66 ± 0.18.
In the case of SQEQGMGMDLYKTSKAA [FAS1], the protein stability index is reported as 2.72 ± 0.059.
Sequence SQFINDHILFTKTFIFI [SRB8] has a protein stability index of 1.47 ± 0.089.
SQFLKRVHANLQCISQI [SNF11] showed a protein stability index of 1.21 ± 0.07.
With SQHKKILEELDFVRNEL [SMC3] the protein stability index was 3.2 ± 0.08.
With SQRAQVVTMSVKSVNDP [RPC37] the protein stability index was 1.89 ± 0.08.
Sequence SQSSAAAGASVDDKRRN [RPN6] has a protein stability index of 3.02 ± 0.087.
In the case of SQVKDSVTETESISQTP [SRP68], the protein stability index is reported as 3.22 ± 0.21.
With SQYFKFKNDFNSFYYTS [RPN9] the protein stability index was 2.51 ± 0.084.
SRCHLVTKDTKKYSSKN [SRP68] gave a protein stability index of 2.65 ± 0.11.
For SRGAVSGQKAGLIAARR [RPL2A], the protein stability index was 3.27 ± 0.065.
With SRHFASYANLPGTITHG [FAS1] the protein stability index was 2.57 ± 0.055.
Work on SRILYKAIRGMVSHKTA [RPL16B] yielded a protein stability index of 1.22 ± 0.16.
Work on SRIRVKIEGCISQVSSI [RPB7] yielded a protein stability index of 1.64 ± 0.11.
Sequence SRNGDFPRTRFEAQIDS [RPN10] has a protein stability index of 3.34 ± 0.077.
Sequence SRPATTTRNGFMEAQGA [FAS2] has a protein stability index of 2.48 ± 0.065.
Work on SRSNFQGKHTKFENDEL [LRP1] yielded a protein stability index of 3.02 ± 0.06.
Work on SSAKRSKNTAVSKVQKR [SRP72] yielded a protein stability index of 2.09 ± 0.11.
For SSEQFNVWDWNNWTSAT [GAL11], the protein stability index was 3.14 ± 0.067.
For SSFKKNLLKFITSNHKS [RPN3], the protein stability index was 1.3 ± 0.064.
SSFRPCPLSQQFCGIKE [BRR2] gave a protein stability index of 2.38 ± 0.068.
Sequence SSLFLDGLEKAAFNGVT [FAS2] has a protein stability index of 2.02 ± 0.092.
In the case of SSLFQEKLLETNVSKQN [ECM29], the protein stability index is reported as 2.35 ± 0.065.
Work on SSLIKAGLDKGISINNM [RPO31] yielded a protein stability index of 2.76 ± 0.066.
For SSLSFGPENALNVYHYF [YJL039C/NUP192], the protein stability index was 2.04 ± 0.05.
SSNQSAPVETKKKRFEI [HRT1] gave a protein stability index of 3.08 ± 0.069.
Sequence SSPTLATGFGAHMANPL [PRE4] has a protein stability index of 2.98 ± 0.068.
Sequence SSQFVRLASEPGIISIT [YMR129W/POM152] has a protein stability index of 1.99 ± 0.12.
SSQPLEPLSDTEEPDLA [DSN1] showed a protein stability index of 3.25 ± 0.037.
SSTDIPSYTHVLISKLS [RRI1] showed a protein stability index of 2.42 ± 0.049.
For SSVTSDSMKYTISSLFV [RPC82], the protein stability index was 2.14 ± 0.06.
For STANPNIKLLNNRMGSY [POP1], the protein stability index was 2.56 ± 0.088.
With STIEKDMKEYDSDKGSK [SMC2] the protein stability index was 3.37 ± 0.056.
STKIIMLLLNDSVENSS [SRB8] showed a protein stability index of 2.6 ± 0.077.
Work on STLMPGGVDVGPSVESY [SNF5] yielded a protein stability index of 2 ± 0.16.
Work on STLSNWSSEFAKWAPTL [SNF2] yielded a protein stability index of 2.85 ± 0.055.
With STMTEPVKQSFIRKYIN [GAL11] the protein stability index was 1.96 ± 0.092.
Work on STNSNSKPSTASPSAHT [RPN4] yielded a protein stability index of 2.75 ± 0.061.
With STRLKKACKTADKLVNV [SRP68] the protein stability index was 2.98 ± 0.074.
For STSYHLNSTLESLYDLI [MED6], the protein stability index was 3 ± 0.084.
For SVARVEDHDVHSNESSN [IRR1], the protein stability index was 3.01 ± 0.052.
Work on SVEEVILERAYKKLDID [SNF2] yielded a protein stability index of 2.95 ± 0.13.
In the case of SVFGFRTQFGGGKSVGF [RPS24A], the protein stability index is reported as 3.31 ± 0.076.
Sequence SVIPEVDREAMLKPNII [YCG1] has a protein stability index of 3.08 ± 0.14.
With SVRLQRFYQLGVDLKLK [CSN12] the protein stability index was 3.01 ± 0.24.
Sequence SVRSLQKRIENGGNSVI [SRP68] has a protein stability index of 2.29 ± 0.096.
Sequence SVTAQVYKIALRLTEQK [RPC82] has a protein stability index of 2.22 ± 0.19.
SVTVSQGNYVTEDIREG [YMR129W/POM152] gave a protein stability index of 2.87 ± 0.061.
Work on SVYGLDDISRQVARTNL [ROX3] yielded a protein stability index of 1.96 ± 0.1.
With SWNLTGTILSSAGDDGK [YGL100W/SEH1] the protein stability index was 3.03 ± 0.077.
Work on SWYLNTFDGIRMSSEEV [GRR1] yielded a protein stability index of 2.13 ± 0.066.
SYDFLPLSNIKALLFFN [RPN12] gave a protein stability index of 1.42 ± 0.08.
With SYELIKEECQIEDDGII [CSN9] the protein stability index was 3.06 ± 0.069.
SYLETLTALGKEKEKER [MED2] showed a protein stability index of 2.34 ± 0.17.
Sequence SYQKAWDLLQSGSQNIS [RPN12] has a protein stability index of 1.2 ± 0.13.
SYQPMYQRPMQVQGQQQ [SSN3] gave a protein stability index of 1.92 ± 0.11.
SYSPTSPSYSPTSPNYS [RPO21] gave a protein stability index of 2.84 ± 0.054.
With SYSPTSPSYSPTSPSYS [RPO21] the protein stability index was 2.78 ± 0.037.
Work on SYVNYRHMALLVDVMTT [RPO21] yielded a protein stability index of 1.2 ± 0.062.
In the case of TAEINCFMHLLVQLFLW [RPN3], the protein stability index is reported as 1.68 ± 0.14.
TALDAEGAARGTSVYLV [DIS3] gave a protein stability index of 2.47 ± 0.12.
TAPANTTDANGSKENYQ [MED2] showed a protein stability index of 3.02 ± 0.047.
TATAATNGNNAGGGSNK [MED6] showed a protein stability index of 3.27 ± 0.11.
For TATGIKVFSLDPQYLVD [ASC1], the protein stability index was 2.89 ± 0.039.
TAVATLLKELSKNAQFI [SMC3] gave a protein stability index of 2.8 ± 0.049.
TAVLSTTARAKARAKKT [RPN2] showed a protein stability index of 3.15 ± 0.075.
Sequence TCVTCHWNLPGERIFNK [SIR2] has a protein stability index of 2.82 ± 0.091.
Sequence TDANGKTIVTGGNGPED [RPO26] has a protein stability index of 3.48 ± 0.12.
Sequence TDDSFEDKVFASKGRTK [BRN1] has a protein stability index of 2.93 ± 0.13.
TDTSTTATAATNGNNAG [MED6] showed a protein stability index of 3.39 ± 0.091.
TEDILKEISTRVFNAKD [YCS4] showed a protein stability index of 3.25 ± 0.095.
TEDVRLAPELNQAIWKR [RPL31B] showed a protein stability index of 3.03 ± 0.062.
In the case of TEELSITGEKLDTQLND [SMC1], the protein stability index is reported as 2.29 ± 0.12.
Sequence TEKEEDAELMADEEEEI [ISW2] has a protein stability index of 3.41 ± 0.083.
Work on TELKKKLDDLENTKDNL [SMC1] yielded a protein stability index of 3.09 ± 0.12.
For TELVDKANIFQVIKNEV [SSN2], the protein stability index was 2.97 ± 0.2.
TENATENDQQDNEEWMN [LIN1] gave a protein stability index of 3.06 ± 0.062.
With TENVAQARIILNHILEK [YGR119C/NUP57] the protein stability index was 3.14 ± 0.067.
For TEPDKPAFSFNSSVGNK [YJL041W/NSP1], the protein stability index was 3.09 ± 0.033.
TEQQIEIPEGVTVSIKS [RPL9B] gave a protein stability index of 2.39 ± 0.067.
For TESITHDSSNGLFQVLH [NUT1], the protein stability index was 2.99 ± 0.058.
With TETLTSKKIVPSPKKVA [SIR4] the protein stability index was 2.63 ± 0.066.
Sequence TFDGKPTATPSPFRPLE [YMR153W/NUP53] has a protein stability index of 2.38 ± 0.12.
With TFGKPEEEDSILSLEQS [YCS4] the protein stability index was 3.14 ± 0.057.
Work on TFLESINGINWRFHTPQ [SIN4] yielded a protein stability index of 1.93 ± 0.12.
TFRLPKTLKLARAPKYA [RPL25] gave a protein stability index of 1.23 ± 0.19.
In the case of TGAASNQSSFNFGNNGA [YOR098C/NUP1], the protein stability index is reported as 2.5 ± 0.096.
With TGAGKGSIGAEVLQGLL [FAS2] the protein stability index was 3.47 ± 0.066.
Sequence TGALINNLEPRQTTSNT [RPN11] has a protein stability index of 2.62 ± 0.15.
For TGANFDDVERGVSRQIA [REC8], the protein stability index was 3.32 ± 0.24.
In the case of TGATSLFGSSNNNNNNN [YGL172W/NUP49], the protein stability index is reported as 2.34 ± 0.056.
TGEAQVDNSPTTESNSR [YLR335W/NUP2] gave a protein stability index of 2.59 ± 0.13.
TGGLFGAKPAGSTGGLG [YGL172W/NUP49] showed a protein stability index of 3.23 ± 0.1.
TGHSQGLVTAVAIAETD [FAS1] gave a protein stability index of 3.29 ± 0.098.
TGIFMAMHYSSNIELAF [COB] showed a protein stability index of 1.24 ± 0.12.
TGKFVLQGQMEKIMILL [CSN12] gave a protein stability index of 1.31 ± 0.2.
